Source: patent US20180186891A1 (PHILOGEN, published 2018)

Target: T1, biotinylated Mouse FAP extracellular domain (mouse, UniProt P97321 26-761, biotinylated (site not stated))
T1 construct: extracellular domain; also called murine antigen
T1 sequence (looked up): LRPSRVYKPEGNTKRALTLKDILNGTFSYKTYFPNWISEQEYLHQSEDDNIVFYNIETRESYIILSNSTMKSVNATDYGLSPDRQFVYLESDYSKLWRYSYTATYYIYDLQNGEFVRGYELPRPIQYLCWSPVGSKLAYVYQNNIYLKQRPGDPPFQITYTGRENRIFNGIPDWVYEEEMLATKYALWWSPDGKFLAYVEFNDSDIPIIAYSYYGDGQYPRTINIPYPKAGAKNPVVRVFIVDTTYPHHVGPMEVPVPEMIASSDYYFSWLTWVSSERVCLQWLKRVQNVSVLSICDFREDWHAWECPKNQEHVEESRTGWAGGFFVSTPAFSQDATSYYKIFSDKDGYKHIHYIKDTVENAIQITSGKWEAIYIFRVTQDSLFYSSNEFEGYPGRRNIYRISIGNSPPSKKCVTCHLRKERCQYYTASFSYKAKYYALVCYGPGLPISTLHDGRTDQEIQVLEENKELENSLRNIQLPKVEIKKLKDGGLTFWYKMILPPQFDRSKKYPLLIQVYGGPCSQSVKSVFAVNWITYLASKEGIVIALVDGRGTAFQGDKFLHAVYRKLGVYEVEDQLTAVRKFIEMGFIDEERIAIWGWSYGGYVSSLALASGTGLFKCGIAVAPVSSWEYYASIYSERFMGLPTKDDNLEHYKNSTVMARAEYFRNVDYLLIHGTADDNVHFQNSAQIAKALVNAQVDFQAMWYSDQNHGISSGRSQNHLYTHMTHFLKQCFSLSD
Experiment: ELISA, biotinylated FAP extracellular domain on streptavidin strips, detection with anti-Myc 9E10
Procedure: ELISA: Streptawell High Bind strips (Roche) were coated with biotinylated Human or Mouse FAP extracellular domain at 100 nM. Cross reactivity with human and murine antigen of the anti-FAP F5 antibody was assessed by detection with the anti-Myc antibody 9E10 and an HRP-conjugated anti-Murine Fc antibody (Sigma). Calorimetric detection of antibody-antigen binding was performed using BM-Blue POD soluble substrate (Roche).

B1: antibody F5 (in scFv format) (scFv, V domains shown)
VH: EVQLLESGGGLVQPGGSLRLSCAASGFTFSPAYMSWVRQAPGKGLEWVSAISGSGGSTYYADSVKGRFTISRDNSKNTLYLQMNSLRAEDTAVYYCAKGWRAFDYWGQGTLVTVSS
VL: EIVLTQSPGTLSLSPGERATLSCRASQSVSRNYLAWYQQKPGQAPRLLIYGASSRATGIPDRFSGSGSGTDFTLTISRLEPEDFAVYYCQQSLGYPPTFGQGTKVEIK
notes: Tested as a single-chain Fv; Detection with anti-Myc antibody 9E10 implies a myc tag; also called F5 antibody; anti-FAP F5 antibody
  binding result: binds
